Our source for the IC50 values is patent US20250109212A1.

B1: SIRPαV2D1M1-Fc (IgG2) (Fc fusion)
chain: EEELQVIQPDKSVSVAAGESAILHCTITSLIPVGPIQWFRGAGPARELIYNQREGHFPRVTTVSETTKRENMDFSISISNITPADAGTYYCVKFRKGSPDTEFKSGAGTELSVRAKPSAPVVSGPAARATPGGGGSGGGGSERKCCVECPPCPAPPVAGPSVFLFPPKPKDTLMISRTPEVTCVVVDVSHEDPEVQFNWYVDGVEVHNAKTKPREEQFNSTFRVVSVLTVVHQDWLNGKEYKCKVSNKGLPAPIEKTISKTKGQPREPQVYTLPPSREEMTKNQVSLTCLVKGFYPSDIAVEWESNGQPENNYKTTPPMLDSDGSFFLYSKLTVDKSRWQQGNVFSCSVMHEALHNHYTQKSLSLSPGK
B2: SIRPαV2D1M2-Fc (IgG2) (Fc fusion)
chain: B1 chain with K68R, F103V
B3: BSI038×S-004 (bispecific antibody, human IgG2, kappa)
heavy: EEELQVIQPDKSVSVAAGESAILHCTITSLIPVGPIQWFRGAGPARELIYNQREGHFPRVTTVSETTKRENMDFSISISNITPADAGTYYCVKFRKGSPDTEFKSGAGTELSVRAKPSAPVVSGPAARATPGGGGSGGGGSEVQLVESGGGLVKPGGSLRLSCAASGFTFSNYGISWVRQAPGKGLEWVSSISSGGDNTYYPDNVKGRFTISRDNAKNSLYLQMNSLRAEDTAVYYCARAGEKAMDYWGQGTLVTVSSASTKGPSVFPLAPCSRSTSESTAALGCLVKDYFPEPVTVSWNSGALTSGVHTFPAVLQSSGLYSLSSVVTVPSSNFGTQTYTCNVDHKPSNTKVDKTVERKCCVECPPCPAPPVAGPSVFLFPPKPKDTLMISRTPEVTCVVVDVSHEDPEVQFNWYVDGVEVHNAKTKPREEQFNSTFRVVSVLTVVHQDWLNGKEYKCKVSNKGLPAPIEKTISKTKGQPREPQVYTLPPSREEMTKNQVSLTCLVKGFYPSDIAVEWESNGQPENNYKTTPPMLDSDGSFFLYSKLTVDKSRWQQGNVFSCSVMHEALHNHYTQKSLSLSPGK
light: EIVLTQSPATLSLSPGERATLSCRASQTINNNLHWYQQKPGQAPRLLIKYASQSISGIPARFSGSGSGTDFTLTISSLEPEDFAVYFCQQFSSWPLTFGGGTKVEIKRTVAAPSVFIFPPSDEQLKSGTASVVCLLNNFYPREAKVQWKVDNALQSGNSQESVTEQDSKDSTYSLSSTLTLSKADYEKHKVYACEVTHQGLSSPVTKSFNRGEC
B4: BSI038×S-005 (bispecific antibody, human IgG2, kappa)
heavy: B3 heavy with K68R, F103V
light: B3 light

Residue numbers refer to the chain shown, from its start.

In the test the target is full length human CD47 (NCBI #NP_942088.1) on 293F-CD47 cells (human) (UniProt Q08722). Kind of test: cell-based blocking FACS on 293F-CD47 cells, blocked ligand biotin-labeled human CD172a-Fc, MFI.
B1: the IC50 (usually the midpoint of a concentration-inhibition curve) is 1.84 nM. That is a single-digit nanomolar value.

In the case of B2, the IC50 came to 2.37 nM.

B3 had an IC50 of 1.8 nM.

Regarding B4, the IC50 amounted to 1.73 nM.
